Test results taken from patent US20240002531A1 (ONO PHARMACEUTICAL, published 2024).
One block for each binder: values may come before it.

Key:
[1] = biological target: T1, HER2 peptide 613-632 (amino acids 613 to 632 of human HER2) (human); assay: ELISA, peptide coated at 10 µg/ml, antibody 10 µg/ml
T1 construct: Synthetic peptide
T1 peptide: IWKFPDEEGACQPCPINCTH

HER2 peptide p610-619 = biological target: T2, HER2 peptide p610-619 (human); assay: SPR Biacore, mAb on chip, peptide analyte, 1:1 fit
T2 peptide: YMPIWKFPDE

HER2 peptide p611-621 = biological target: T3, HER2 peptide p611-621 (human); assay: SPR Biacore, mAb on chip, peptide analyte, 1:1 fit
T3 peptide: MPIWKFPDEEG

HER2 peptide p612-621 = biological target: T4, HER2 peptide p612-621 (human); assay: SPR Biacore, mAb on chip, peptide analyte, 1:1 fit
T4 peptide: PIWKFPDEEG

HER2 peptide p610-620 = biological target: T5, HER2 peptide p610-620 (human); assay: SPR Biacore, mAb on chip, peptide analyte, 1:1 fit
T5 peptide: YMPIWKFPDEE

[2] = biological target: T6, HER2 peptide p603-622 (amino acids 603 to 622 of human HER2) (human); assay: SPR Biacore, mAb on chip, peptide analyte, 1:1 fit
T6 construct: Synthetic peptide; also called wild-type HER2 peptide
T6 peptide: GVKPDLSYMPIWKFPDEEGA

HER2 peptide p609-618 = biological target: T7, HER2 peptide p609-618 (human); assay: SPR Biacore, mAb on chip, peptide analyte, 1:1 fit
T7 peptide: SYMPIWKFPD

HER2 peptide p609-619 = biological target: T8, HER2 peptide p609-619 (human); assay: SPR Biacore, mAb on chip, peptide analyte, 1:1 fit
T8 peptide: SYMPIWKFPDE

HER2 peptide p614-622 = biological target: T9, HER2 peptide p614-622 (human); assay: SPR Biacore, mAb on chip, peptide analyte, 1:1 fit
T9 peptide: WKFPDEEGA

HER2 peptide p611-618 = biological target: T10, HER2 peptide p611-618 (human); assay: SPR Biacore, mAb on chip, peptide analyte, 1:1 fit
T10 peptide: MPIWKFPD

HER2 peptide p609-622 = biological target: T11, HER2 peptide p609-622 (human); assay: SPR Biacore, mAb on chip, peptide analyte, 1:1 fit
T11 peptide: SYMPIWKFPDEEGA

HER2 peptide p613-618 = biological target: T12, HER2 peptide p613-618 (human); assay: SPR Biacore, mAb on chip, peptide analyte, 1:1 fit
T12 peptide: IWKFPD

HER2 peptide p613-622 = biological target: T13, HER2 peptide p613-622 (human); assay: SPR Biacore, mAb on chip, peptide analyte, 1:1 fit
T13 peptide: IWKFPDEEGA

HER2 peptide p609-620 = biological target: T14, HER2 peptide p609-620 (human); assay: SPR Biacore, mAb on chip, peptide analyte, 1:1 fit
T14 peptide: SYMPIWKFPDEE

HER2 peptide p611-620 = biological target: T15, HER2 peptide p611-620 (human); assay: SPR Biacore, mAb on chip, peptide analyte, 1:1 fit
T15 peptide: MPIWKFPDEE

HER2 peptide p613-621 = biological target: T16, HER2 peptide p613-621 (human); assay: SPR Biacore, mAb on chip, peptide analyte, 1:1 fit
T16 peptide: IWKFPDEEG

HER2 peptide p610-618 = biological target: T17, HER2 peptide p610-618 (human); assay: SPR Biacore, mAb on chip, peptide analyte, 1:1 fit
T17 peptide: YMPIWKFPD

HER2 peptide p610-621 = biological target: T18, HER2 peptide p610-621 (human); assay: SPR Biacore, mAb on chip, peptide analyte, 1:1 fit
T18 peptide: YMPIWKFPDEEG

HER2 peptide p611-622 = biological target: T19, HER2 peptide p611-622 (human); assay: SPR Biacore, mAb on chip, peptide analyte, 1:1 fit
T19 peptide: MPIWKFPDEEGA

HER2 peptide p612-619 = biological target: T20, HER2 peptide p612-619 (human); assay: SPR Biacore, mAb on chip, peptide analyte, 1:1 fit
T20 peptide: PIWKFPDE

HER2 peptide p614-619 = biological target: T21, HER2 peptide p614-619 (human); assay: SPR Biacore, mAb on chip, peptide analyte, 1:1 fit
T21 peptide: WKFPDE

HER2 peptide p613-620 = biological target: T22, HER2 peptide p613-620 (human); assay: SPR Biacore, mAb on chip, peptide analyte, 1:1 fit
T22 peptide: IWKFPDEE

HER2 peptide p613-619 = biological target: T23, HER2 peptide p613-619 (human); assay: SPR Biacore, mAb on chip, peptide analyte, 1:1 fit
T23 peptide: IWKFPDE

HER2 peptide p611-619 = biological target: T24, HER2 peptide p611-619 (human); assay: SPR Biacore, mAb on chip, peptide analyte, 1:1 fit
T24 peptide: MPIWKFPDE

HER2 peptide p612-622 = biological target: T25, HER2 peptide p612-622 (human); assay: SPR Biacore, mAb on chip, peptide analyte, 1:1 fit
T25 peptide: PIWKFPDEEGA

binding result [1]: binds
B1: H2Mab-214 antibody (antibody, V domains shown)
VH: QVTLKESGPGILQPSQTLSLTCSFSGFSLSTSGMGVSWIRQPSGKGLEWLAHIFWDDDKRYNPSLKSRLTISKDTSRNKVFLKITSVDTADTATYYCARRVVATDWYFDVWGAGTTVTVSS
VL: DIVLTQSPASLAVSLGQRATISCRASESVEYYGTTLMQWYQQKPGQPPKLLIYAASKVESGVPARFSGSGSGTDFSLNIHPVEEDDVAMYFCQQSRKVPLTFGAGTKLELKR
notes: Mouse monoclonal from a hybridoma (immunogen HER2ec made in LN229 cells); also called antibody of the present invention

Kd (HER2 peptide p610-619): 1.19 nM
koff (HER2 peptide p610-619): 0.00038 s⁻¹
kon (HER2 peptide p610-619): 319000 M⁻¹ s⁻¹
Kd (HER2 peptide p611-621): 1.89 nM
koff (HER2 peptide p611-621): 0.000411 s⁻¹
kon (HER2 peptide p611-621): 218000 M⁻¹ s⁻¹
Kd (HER2 peptide p612-621): 3.49 nM
koff (HER2 peptide p612-621): 0.000683 s⁻¹
kon (HER2 peptide p612-621): 196000 M⁻¹ s⁻¹
Kd (HER2 peptide p610-620): 1.32 nM
koff (HER2 peptide p610-620): 0.000342 s⁻¹
kon (HER2 peptide p610-620): 260000 M⁻¹ s⁻¹
Kd [2]: 3.67 nM
koff [2]: 0.00033 s⁻¹
kon [2]: 90100 M⁻¹ s⁻¹
Kd (HER2 peptide p609-618): 0.803 nM
koff (HER2 peptide p609-618): 0.00021 s⁻¹
kon (HER2 peptide p609-618): 262000 M⁻¹ s⁻¹
Kd (HER2 peptide p609-619): 1.2 nM
koff (HER2 peptide p609-619): 0.000293 s⁻¹
kon (HER2 peptide p609-619): 244000 M⁻¹ s⁻¹
Kd (HER2 peptide p614-622): 2910 nM
koff (HER2 peptide p614-622): 0.00145 s⁻¹
kon (HER2 peptide p614-622): 498 M⁻¹ s⁻¹
Kd (HER2 peptide p611-618): 0.869 nM
koff (HER2 peptide p611-618): 0.00031 s⁻¹
kon (HER2 peptide p611-618): 356000 M⁻¹ s⁻¹
Kd (HER2 peptide p609-622): 1.57 nM
koff (HER2 peptide p609-622): 0.00033 s⁻¹
kon (HER2 peptide p609-622): 210000 M⁻¹ s⁻¹
Kd (HER2 peptide p613-618): 4.45 nM
koff (HER2 peptide p613-618): 0.00289 s⁻¹
kon (HER2 peptide p613-618): 649000 M⁻¹ s⁻¹
Kd (HER2 peptide p613-622): 14 nM
koff (HER2 peptide p613-622): 0.00346 s⁻¹
kon (HER2 peptide p613-622): 247000 M⁻¹ s⁻¹
Kd (HER2 peptide p609-620): 1.24 nM
koff (HER2 peptide p609-620): 0.000291 s⁻¹
kon (HER2 peptide p609-620): 234000 M⁻¹ s⁻¹
Kd (HER2 peptide p611-620): 2.65 nM
koff (HER2 peptide p611-620): 0.000387 s⁻¹
kon (HER2 peptide p611-620): 146000 M⁻¹ s⁻¹
Kd (HER2 peptide p613-621): 10.5 nM
koff (HER2 peptide p613-621): 0.00343 s⁻¹
kon (HER2 peptide p613-621): 325000 M⁻¹ s⁻¹
Kd (HER2 peptide p610-618): 0.599 nM
koff (HER2 peptide p610-618): 0.000225 s⁻¹
kon (HER2 peptide p610-618): 376000 M⁻¹ s⁻¹
Kd (HER2 peptide p610-621): 1.36 nM
koff (HER2 peptide p610-621): 0.000347 s⁻¹
kon (HER2 peptide p610-621): 256000 M⁻¹ s⁻¹
Kd (HER2 peptide p611-622): 2.02 nM
koff (HER2 peptide p611-622): 0.000378 s⁻¹
kon (HER2 peptide p611-622): 187000 M⁻¹ s⁻¹
Kd (HER2 peptide p612-619): 3.36 nM
koff (HER2 peptide p612-619): 0.000841 s⁻¹
kon (HER2 peptide p612-619): 250000 M⁻¹ s⁻¹
Kd (HER2 peptide p614-619): 1380 nM
koff (HER2 peptide p614-619): 0.00118 s⁻¹
kon (HER2 peptide p614-619): 854 M⁻¹ s⁻¹
Kd (HER2 peptide p613-620): 13.1 nM
koff (HER2 peptide p613-620): 0.00371 s⁻¹
kon (HER2 peptide p613-620): 283000 M⁻¹ s⁻¹
Kd (HER2 peptide p613-619): 10.3 nM
koff (HER2 peptide p613-619): 0.0041 s⁻¹
kon (HER2 peptide p613-619): 397000 M⁻¹ s⁻¹
Kd (HER2 peptide p611-619): 2.02 nM
koff (HER2 peptide p611-619): 0.000487 s⁻¹
kon (HER2 peptide p611-619): 240000 M⁻¹ s⁻¹
Kd (HER2 peptide p612-622): 3.74 nM
koff (HER2 peptide p612-622): 0.000724 s⁻¹
kon (HER2 peptide p612-622): 194000 M⁻¹ s⁻¹
binding result [1]: binds
B2: H2Mab-250 antibody (antibody, V domains shown)
VH: EVQLVESGGGLVQPGGSLKLSCAASGFTFSNYGMSWVRQTPDRRLELVATINNNGGGTYYPDSVKGRFTISRDNAKNTLYLQMSSLKSEDTAMYYCTSPGLLWDAWGAGTTVTVSS
VL: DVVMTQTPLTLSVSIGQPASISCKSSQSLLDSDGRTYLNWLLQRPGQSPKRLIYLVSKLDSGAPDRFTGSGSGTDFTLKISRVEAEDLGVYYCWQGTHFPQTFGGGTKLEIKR
notes: as for B1
